# In the DeepSol protein solubility set:
# Assay: soluble on expression in E. coli; label from the status in PepcDB or PDB records
row,Sequence,soluble on expression in E. coli
1,MPTPFDVTILGGGLAGRLCAWQLAQTGVPPARIAVVERGARDGSGSAAYVAAAMLAPLAEAAVADRFVVELGLASLTLWRDWLPMLRTPVFFQQAGTLVVWHPADRGEASLFANHVRAATPPERIAADLRAVDAEGIGTLEPALAQRFSQGLYLAGEGQLDNRAVLDALATELEALGVQLRWNTAVADPHPQALAAAGLGARLVLDCRGLGAQPQWPQLRGLRGEVARIHAPDVTLTRPVRMLHPRYPIYIAPKPGHVYVIGATEIESDDMSPVSVRSTLELLSAAYAVHPAFGEARVLELCTQCRPTLPDHRPAIRWDGAGTLSVNGLYRHGYMIAPAVAQAAVAAAHALLDGRAIDAPASAWPGLFAAPASPEPVLPLEHHHHHH,soluble
2,MPVAKDNQFWDALMENKVAKKLIKKHKCKAKCENIDDLANRYEVSKQEVEKVFKIFQLMDDDGSGTISSSEVAKMLNELGIDVSPKVVQAVMRSSDVSGDGQIDFEEFLAAVTSKIKLSTVKADVQLMLSKIDNNPEKVVSWGIEHLMIIFCEEPLKSCYYRLALTAGCTIICGYLWF,not soluble
3,MPVDKNLRDLEPGIHTDLEGRLTYGGYLRLDQLLSAQQPLSEPAHHDEMLFIIQAQTSELWLKLLAHELRAAIVHLQRDEVWQCRKVLARSKQVLRQLTEQWSVLETLTPSEYMGFRDVLGPSSGFQSLQYRYIEFLLGNKNPQMLQVFAYDPAGQARLREVLEAPSLYEEFLRYLARFGHAIPQQYQARDWTAAHVADDTLRPVFERIYENTDRYWREYSLCEDLVDVETQFQLWRFRHMRTVMRVIGFKRGTGGSSGVGFLQQALALTFFPELFDVRTSVGVDNRPPQGSADAGKRLEHHHHHH,soluble
4,MPVFVKLTGGSIGLQAGVQSSDVVLVFRNDRNLDNIVNGKFTLGADASVAAGPVGRNALAATDSELKAEIYSWSTARGLFAGIALDGAALQIDDSANLDVYGKGTTPRMIFEGRTAEPPSSDVIAFRDRLEEVTYTARNNLEHHHHHH,soluble
5,MPVITILGCRMFEDEIMHLLENDPEIEEVLVVENEDCVGIMKKMAEAGLAYTALSPEKIPEKSSETGKGLTLIVYMLELALHAIPENLKKTVYSKVELMSSCSDGILLFYGLCGNVLGKIEEDFKDLGCQVCILKEENGEIVDDCIGAVLGGRKQYLEVLKSCRGVGTFFLTPMWAVNWREMIRTSGLSQNPDDISMSKFVFDYAGYKRVARLDTGLAYEKDFDACVKEFSTLFEFEVTELEGTLHLIENCYAKTKASVFEACPRSQALEHHHHHH,soluble
6,MPVNATGVSFSSFGISYHKDNSFRGTIRGKNDEVVKCSMGERSIRFNVNKFSGCILETVSRQSTKDIHGWVSDERTVYPSRVINQEIDNCCLQKNAKISSEERKMVFSLVSKEFELTLDVKAAQSSINHIIIGNASFGKKMDALCDGMSRAVKNSTTDYIANVLADKFYQKHIAPGVDIVKLRNEIPGYMSRVIQG,not soluble
7,MPVVKSIYSSLKSFADYFSPSAKTSSQQVVILRMPGNPLELVGLVTRRTLEGLPDGFTQGDRVAVYLPMGYMIGGYTVFVPTEWVHPIQMSVEEAMRSSLIAWMARLEHHHHHH,not soluble
8,MPVYFTKRAFLPDGWAADVQIAVDELGDIQRISTGSSSSGCQVLSGPVLPGMPNLHSHAFQRMMSGLAEVAGDPQDSFWTWRDLMYRLVQQLTPEQVGVIARQLYIEMLKGGYTQVAEFHYLHHSPDGSPYNDIGEMTAQLSQAAQDAGIGMTLLPVLYSYAGFGAQPAQQGQSRFIQDTESYLRQQQVIRRQLANQPLQNQGLCFHSLRAVELSQMQQILHVSDKQLPVHIHIAEQQKEVNDCLAWCGQRPVAWLYGHLPVDSRWCLVHATHLDTSELVMLANSQAVAGLCPTTEANLGDGIFPGVDYIHHQGRWGIGSDSHVSLDVVEELRWLEYGQRLRDQRRNRLTCERQPAVADLLYSQALAGGRQACGRQISQLAVGYRADWLVLDGDDPYIAGTRSASLLNRWLFAGGKSQIRDVYVAGKAVIVDRYHPLQQQTAQAFLAVLKACQQEV,not soluble
9,MPYSSSGVGHNGFDKADLHIHTKCSDGLFTPEEIVHKAIHVGLKAISITDHDTVTGIDQAKPLALELGLELIPGVEMSSAYKGYDIHILGYFFDYQQSELKGYLDHCRLLRTERAERMVQKLAKMGVKIEIEQIIMKAQNGSVGRPHIAAVLQDEGFVKSFSEAFSKYLGSHSPAYVKSIETHPEEVIRLINEAGGLSFLAHPAQNVPDEILRQLISFGLDGLEIIHPSHDTYRQNYYREIANEYFLLFSGGSDYHGPKDHEDNFGQVWIPYEWVTKMKSRLAPAVKE,not soluble
10,MQAKIAASNTGELDALQQLGFSLVEGEVDLALPVNNASDSGAVVAQETDIPALRQLASAAFAQSRFRAPWYAPDASSRFYAQWIENAVRGTFDHQCLILRAASGDIRGYVSLRELNATDARIGLLAGRGAGAELMQTALNWAYARGKTTLRVATQMGNTAALKRYIQSGANVESTAYWLYR,not soluble
11,MQDFKKLPTVLTAEELIDKIFRRAARVEGRNPKEKALNKLATISNVSRDYFGKIIGAHPSYENLPDFYREMVDVVVGIRQLKKSLVALKWADGMIQKVVSRAVREVKGGKNPSAVVKSAYGRVASIIEQIDDELRFLNDAKNRMREIPILQDLPTIVVAGYPNVGKSSLVARISTVKPEVASYPFTTKKINLGFAEFAGKRVQIIDTPGLLDRPLSKRNRIERRAVLALKHLADIILFVIDPTETCGYSLEKQLSLLEEIKGYFAKPTVEVYSKADMHDRRDRQAYSAVTGEGIDELIKEIEKMVKIHSQTSTVIAPSGQTSTQEQHSAAALEHHHHHH,not soluble
12,MQEAVNSALPGDVIIVKPGSYYDHVTVTTNNLVIRSESGNPEDTVIEGYNPTADVFTIEADNITLEGFTIMGAGANCSGLCLHGCTNCLIDSNTFFNDFRGIYLKSSLNNDILNNIVIKGGRGISIEESNHNSVSKNKVSECGYGINLLNSKDNRISKNTVAGNKDYGILVQSSDSNTFSRNNASENGRGIHIGNSDGNTLSNNKISLNEVHGLFVCPKSDKNLVYNNYFSNTLNVEANNGTSNVYHKSRTKGENIVGGPYIGGNYWATPEGSGFSETAADNNGDGIADEKYLFETSDYFDPLPLIAYKPPEPVLPTANLSINTPEDYAPLSVQFTDLSENATSRTWDFENDGVIDSPDETPVYTYPSPGTYTVNLTAACENGTDTKLITINVGENNVAEIQPESAPGEESMSTTGSQAEQNSEQEGISSIPGFEMLYGIFCLLAIFLYKESTKLEHHHHHH,not soluble
13,MQEKPQEPKVVGVEILEKSGLDIKKLVDKLVKATAAEFTTYYYYTILRMHLTGMEGEGLKEIAEDARLEDRLHFELMTQRIYELGGGLPRDIRQLADISACSDAYLPENWKDPKEILKVLLEAEQCAIRTWKEVCDMTYGKDPRTYDLAQRILQEEIEHEAWFLELLYGRPSGHFRRSSPGNAPYSKK,soluble
14,MQEYTNHSDTTFALRNISFRVPGRTLLHPLSLTFPAGKVTGLIGHNGSGKSTLLKMLGRHQPPSEGEILLDAQPLESWSSKAFARKVAYLPQQLPPAEGMTVRELVAIGRYPWHGALGRFGAADREKVEEAISLVGLKPLAHRLVDSLSGGERQRAWIAMLVAQDSRCLLLDEPTSALDIAHQVDVLSLVHRLSQERGLTVIAVLHDINMAARYCDYLVALRGGEMIAQGTPAEIMRGETLEMIYGIPMGILPHPAGAAPVSFVY,soluble
15,MQFLQKFPPFNQMENAHLAYLVEQCQLRFYAADESIIKPGDGPVEHFYIVKQGRIVGERPHSAKRGTETTFEITTGECFPLAALLGERATRTEHLAAEDTFCLQLNKQAFIKLFALSTTFRDFALRGVSSLLDQVNQQVQQRAAETLGTQYSLNTRLGELAMRHPVMCSPDMPMRDAVKLMHEQQVGSIVIVDEQQAPLGIFTLRDLREAVADVNADFSAPVKNTMSPSPFHLSPDASAFDAAIAMTGRHIAHVCLVRDGRLCGVVSERDLFSLQRVDLVHLARTIRNAPRIEALAGLRGDIVQLVDRMLAHGASSTQITQIITLLNDHTVCRVIELTLAEKGDPGVPFSWLCFGSEGRREQTLHTDQDNGILFEASDATEAEQIRTLLLPIAERINQSLAQCGFTLCKGNIMAGNPDLCLSRLEWSRRFSAFIREATPENLLASSIYFDLRVVWGDESGGGQLRRGILDQVADNRLFQRMMAENALRQRPPVGRFKDFVLARKGSEKDTLDLKTEGLTPFVDGARLLALANGIGVNNTQERLRQLVEREVIDPLDGAAYEEAYHFIQQTRMQQHQLQSRQNLAYSNRIDPDTLNHLDRRILRESFRQAQRLQMSLTMRYQL,not soluble
